Laboratory results: paper PMC3098719 (Molecular cell, 2008)
Values belong to the binder of their own block, whether it stands above or below them.

Columns and labels:
[1] = molecular target: MJ1130 (Kae1-Bud32 fusion of Methanococcus jannaschii) as used for the complex with Cgi121 (Methanococcus jannaschii) (UniProt Q58530); test: crystal structure
[2] = molecular target: T1, Bud32 V486Y (M. jannaschii) (Methanococcus jannaschii, UniProt Q58530 328-535, V486Y); test: pull-down
T1 sequence (looked up): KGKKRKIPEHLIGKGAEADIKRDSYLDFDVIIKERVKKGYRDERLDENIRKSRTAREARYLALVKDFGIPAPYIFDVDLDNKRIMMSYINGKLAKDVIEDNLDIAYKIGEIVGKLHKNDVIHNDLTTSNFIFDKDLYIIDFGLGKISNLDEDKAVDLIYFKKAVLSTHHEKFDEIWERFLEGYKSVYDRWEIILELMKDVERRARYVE

[3] = molecular target: T2, Bud32 K489E (M. jannaschii) (Methanococcus jannaschii, UniProt Q58530 328-535, K489E); test: pull-down
T2 sequence (looked up): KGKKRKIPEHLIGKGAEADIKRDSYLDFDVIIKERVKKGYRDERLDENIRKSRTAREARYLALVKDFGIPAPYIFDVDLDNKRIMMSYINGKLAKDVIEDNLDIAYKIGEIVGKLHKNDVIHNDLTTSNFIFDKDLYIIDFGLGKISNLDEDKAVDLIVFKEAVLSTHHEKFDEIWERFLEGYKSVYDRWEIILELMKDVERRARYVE

[4] = molecular target: T3, Bud32 R380E (M. jannaschii) (Methanococcus jannaschii, UniProt Q58530 328-535, R380E); test: pull-down
T3 sequence (looked up): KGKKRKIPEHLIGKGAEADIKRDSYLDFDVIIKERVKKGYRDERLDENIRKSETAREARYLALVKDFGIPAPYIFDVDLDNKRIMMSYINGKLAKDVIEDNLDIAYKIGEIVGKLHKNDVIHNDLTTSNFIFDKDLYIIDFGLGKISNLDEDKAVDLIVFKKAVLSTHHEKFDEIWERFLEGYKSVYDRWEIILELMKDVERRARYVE

[5] = molecular target: T4, Bud32 K365E (M. jannaschii) (Methanococcus jannaschii, UniProt Q58530 328-535, K365E); test: pull-down
T4 sequence (looked up): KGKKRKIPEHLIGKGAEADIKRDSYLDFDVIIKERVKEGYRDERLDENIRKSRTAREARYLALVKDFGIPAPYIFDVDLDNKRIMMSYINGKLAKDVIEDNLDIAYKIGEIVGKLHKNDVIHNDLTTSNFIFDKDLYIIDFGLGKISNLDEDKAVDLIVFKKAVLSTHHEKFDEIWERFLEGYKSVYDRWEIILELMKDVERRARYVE

[6] = molecular target: T5, Bud32 (residues 328-535 of Methanococcus jannaschii MJ1130), untagged (Methanococcus jannaschii, UniProt Q58530 328-535); test: pull-down
T5 sequence (looked up): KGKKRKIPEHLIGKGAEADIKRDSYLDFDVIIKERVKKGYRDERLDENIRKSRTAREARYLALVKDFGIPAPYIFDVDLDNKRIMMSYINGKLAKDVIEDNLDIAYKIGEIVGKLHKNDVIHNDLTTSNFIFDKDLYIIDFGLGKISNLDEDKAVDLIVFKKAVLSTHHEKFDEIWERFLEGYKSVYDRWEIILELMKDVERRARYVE

[7] = molecular target: T6, Kae1 (residues 1-328 of Methanococcus jannaschii MJ1130), untagged (Methanococcus jannaschii, UniProt Q58530 1-328); test: pull-down
T6 sequence (looked up): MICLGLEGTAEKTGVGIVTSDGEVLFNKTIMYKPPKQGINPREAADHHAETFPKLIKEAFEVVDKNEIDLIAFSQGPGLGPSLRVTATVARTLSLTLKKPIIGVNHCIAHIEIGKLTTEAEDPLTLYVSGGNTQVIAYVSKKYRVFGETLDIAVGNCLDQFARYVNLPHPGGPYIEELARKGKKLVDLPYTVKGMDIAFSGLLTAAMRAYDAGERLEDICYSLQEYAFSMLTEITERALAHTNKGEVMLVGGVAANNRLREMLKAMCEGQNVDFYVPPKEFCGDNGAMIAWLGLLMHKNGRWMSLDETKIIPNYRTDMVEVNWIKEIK

[8] = molecular target: the molecule itself; test: SEC
[9] = molecular target: T7, GST-Kae1 E236K (M. jannaschii) (Methanococcus jannaschii, UniProt Q58530 1-328, E236K); test: pull-down
T7 sequence (looked up): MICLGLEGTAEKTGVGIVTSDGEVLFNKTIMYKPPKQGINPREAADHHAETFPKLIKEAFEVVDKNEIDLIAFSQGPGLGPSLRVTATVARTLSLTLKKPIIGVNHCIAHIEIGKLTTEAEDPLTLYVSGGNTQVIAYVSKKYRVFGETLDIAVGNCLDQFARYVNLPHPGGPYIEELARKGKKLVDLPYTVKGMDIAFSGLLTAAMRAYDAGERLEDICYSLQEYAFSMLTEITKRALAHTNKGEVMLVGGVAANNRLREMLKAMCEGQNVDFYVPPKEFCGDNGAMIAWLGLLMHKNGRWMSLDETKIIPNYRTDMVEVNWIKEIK

[10] = molecular target: T8, GST-Kae1 E233R (M. jannaschii) (Methanococcus jannaschii, UniProt Q58530 1-328, E233R); test: pull-down
T8 sequence (looked up): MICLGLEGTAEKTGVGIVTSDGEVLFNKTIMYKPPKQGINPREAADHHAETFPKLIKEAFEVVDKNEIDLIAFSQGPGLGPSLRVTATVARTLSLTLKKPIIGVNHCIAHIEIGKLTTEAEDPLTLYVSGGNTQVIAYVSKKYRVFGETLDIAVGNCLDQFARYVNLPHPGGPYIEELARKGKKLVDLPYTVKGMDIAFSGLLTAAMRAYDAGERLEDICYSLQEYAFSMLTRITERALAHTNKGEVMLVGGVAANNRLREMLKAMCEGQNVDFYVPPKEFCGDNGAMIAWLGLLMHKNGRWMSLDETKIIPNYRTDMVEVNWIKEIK

[11] = molecular target: T9, GST-Kae1 (residues 1-328 of Methanococcus jannaschii MJ1130) (Methanococcus jannaschii, UniProt Q58530 1-328); test: pull-down
T9 sequence (looked up): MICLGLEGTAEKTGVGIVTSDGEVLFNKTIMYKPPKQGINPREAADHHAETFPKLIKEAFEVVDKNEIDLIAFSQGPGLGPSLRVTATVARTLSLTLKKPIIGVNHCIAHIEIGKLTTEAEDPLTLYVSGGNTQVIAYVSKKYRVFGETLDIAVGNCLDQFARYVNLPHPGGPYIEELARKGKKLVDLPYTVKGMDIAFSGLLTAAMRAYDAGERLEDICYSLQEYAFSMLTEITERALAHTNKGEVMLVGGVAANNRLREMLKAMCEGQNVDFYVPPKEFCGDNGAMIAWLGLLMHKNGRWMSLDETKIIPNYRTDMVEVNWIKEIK

B1: GST-Cgi121 (Methanococcus jannaschii MJ0187) (natural protein, UniProt Q57646 1-145, looked up)
chain: MIIRGIRGARINNEIFNLGLKFQILNADVVATKKHVLHAINQAKTKKPIAKSFWMEILVRASGQRQIHEAIKIIGAKDGNVCLICEDEETFRKIYELIGGEIDDSVLEINEDKERLIREIFKIRGFGNVVERVLEKIALIELKKE
stoichiometry N (Cgi121 per MJ1130) [1]: 1
binding result [2]: binds
binding result [3]: binds
binding result [4]: binds
binding result [5]: binds

B2: GST-Cgi121 A138R (M. jannaschii) (natural protein, Methanococcus jannaschii, UniProt Q57646 1-145, looked up)
chain: MIIRGIRGARINNEIFNLGLKFQILNADVVATKKHVLHAINQAKTKKPIAKSFWMEILVRASGQRQIHEAIKIIGAKDGNVCLICEDEETFRKIYELIGGEIDDSVLEINEDKERLIREIFKIRGFGNVVERVLEKIRLIELKKE
binding result [6]: binds

B6: Pcc1 E30R (P. furiosus) (natural protein, Pyrococcus furiosus, UniProt Q8TZI1 1-82, looked up)
chain: MKAKRVQAKIEIEFPSEDVAKVVYEAVLYRHLSVPYRRSEIDFKLEGKKIILDIKATDSSALRGTVNSYLRWIKAAIDVIEV
stoichiometry N [8]: 2

B7: Pcc1 V79R (P. furiosus) (natural protein, Pyrococcus furiosus, UniProt Q8TZI1 1-82, looked up)
chain: MKAKRVQAKIEIEFPSEDVAKVVYEAVLYEHLSVPYRRSEIDFKLEGKKIILDIKATDSSALRGTVNSYLRWIKAAIDRIEV
stoichiometry N [8]: 2

B8: Pcc1 A75Y (P. furiosus) (natural protein, Pyrococcus furiosus, UniProt Q8TZI1 1-82, looked up)
chain: MKAKRVQAKIEIEFPSEDVAKVVYEAVLYEHLSVPYRRSEIDFKLEGKKIILDIKATDSSALRGTVNSYLRWIKYAIDVIEV
stoichiometry N [8]: 2

B10: Pcc1 A75Y/V79R (P. furiosus) (natural protein, Pyrococcus furiosus, UniProt Q8TZI1 1-82, looked up)
chain: MKAKRVQAKIEIEFPSEDVAKVVYEAVLYEHLSVPYRRSEIDFKLEGKKIILDIKATDSSALRGTVNSYLRWIKYAIDRIEV
stoichiometry N [8]: 2

Results, then the binder that gave them:

binding result [6]: binds
B3: GST-Cgi121 L139R (M. jannaschii) (natural protein, Methanococcus jannaschii, UniProt Q57646 1-145, looked up)
chain: MIIRGIRGARINNEIFNLGLKFQILNADVVATKKHVLHAINQAKTKKPIAKSFWMEILVRASGQRQIHEAIKIIGAKDGNVCLICEDEETFRKIYELIGGEIDDSVLEINEDKERLIREIFKIRGFGNVVERVLEKIARIELKKE

binding result [6]: binds
B4: GST-Cgi121 L134E (M. jannaschii) (natural protein, Methanococcus jannaschii, UniProt Q57646 1-145, looked up)
chain: MIIRGIRGARINNEIFNLGLKFQILNADVVATKKHVLHAINQAKTKKPIAKSFWMEILVRASGQRQIHEAIKIIGAKDGNVCLICEDEETFRKIYELIGGEIDDSVLEINEDKERLIREIFKIRGFGNVVERVEEKIALIELKKE

binding result [7]: binds
B5: GST-Pcc1 (Pyrococcus furiosus PF2011) (natural protein, UniProt Q8TZI1 1-82, looked up)
chain: MKAKRVQAKIEIEFPSEDVAKVVYEAVLYEHLSVPYRRSEIDFKLEGKKIILDIKATDSSALRGTVNSYLRWIKAAIDVIEV

binding result [9]: binds
binding result [10]: binds
binding result [11]: binds
B9: Pcc1 (Pyrococcus furiosus PF2011), untagged (natural protein, UniProt Q8TZI1 1-82, looked up)
chain: MKAKRVQAKIEIEFPSEDVAKVVYEAVLYEHLSVPYRRSEIDFKLEGKKIILDIKATDSSALRGTVNSYLRWIKAAIDVIEV
